The target in data set [1] is 1:1 RP105 N402Q–MD-1 complex.
For data set [2], the target named is bovine 1:1 sRP105–MD-1 complex (building block of the 2:2 complex) (bovine). The data set is described as follows: crystal structure.
Data set [3] has the same target. The data set is described as follows: SEC.
Data set [4] concerns the molecule itself. As to the kind of experiment: SEC. On the technique in general: Size exclusion chromatography separates by hydrodynamic size, large species first.

The stoichiometry N is a count of units in the complex or per binding partner.

With 1:1 RP105 N402Q–MD-1 complex, the stoichiometry N in data set [1] is 2.
Take “bovine 1:1 sRP105–MD-1 complex (building block of the 2:2 complex)”: the stoichiometry N in data set [2] and in data set [3] was 2 throughout.

B1: human 1:1 sRP105–MD-1 complex (complex)
chain 1: WDQMCIEKEANKTYNCENLGLSEIPDTLPNTTEFLEFSFNFLPTIHNRTFSRLMNLTFLDLTRCQINWIHEDTFQSHHQLSTLVLTGNPLIFMAETSLNGPKSLKHLFLIQTGISNLEFIPVHNLENLESLYLGSNHISSIKFPKDFPARNLKVLDFQNNAIHYISREDMRSLEQAINLSLNFNGNNVKGIELGAFDSTIFQSLNFGGTPNLSVIFNGLQNSTTQSLWLGTFEDIDDEDISSAMLKGLCEMSVESLNLQEHRFSDISSTTFQCFTQLQELDLTATHLKGLPSGMKGLNLLKKLVLSVNHFDQLCQISAANFPSLTHLYIRGNVKKLHLGVGCLEKLGNLQTLDLSHNDIEASDCCSLQLKNLSHLQTLNLSHNEPLGLQSQAFKECPQLELLDLAFTRLHINAPQSPFQNLHFLQVLNLTYCFLDTSNQHLLAGLPVLRHLNLKGNHFQDGTITKTNLLQTVGSLEVLILSSCGLLSIDQQAFHSLGKMSHVDLSHNSLTCDSIDSLSHLKGIYLNLAANSINIISPRLLPILSQQSTINLSHNPLDCTCSNIHFLTWYKENLHKLEGSEETTCANPPSLRGVKLSDVKLSCG
chain 2: GGGGKAWPTHVVCSDSGLEVLYQSCDPLQDFGFSVEKCSKQLKSNINIRFGIILREDIKELFLDLALMSQGSSVLNFSYPICEAALPKFSFCGRRKGEQIYYAGPVNNPEFTIPQGEYQVLLELYTEKRSTVACANATIMCS
With B1, the “stoichiometry N” value in data set [4] stood at 2.

B2: mouse 1:1 sRP105–MD-1 complex (wild type) (complex)
chain 1: TTSSDQKCIEKEVNKTYNCENLGLNEIPGTLPNSTECLEFSFNVLPTIQNTTFSRLINLTFLDLTRCQIYWIHEDTFQSQHRLDTLVLTANPLIFMAETALSGPKALKHLFFIQTGISSIDFIPLHNQKTLESLYLGSNHISSIKLPKGFPTEKLKVLDFQNNAIHYLSKEDMSSLQQATNLSLNLNGNDIAGIELGAFDSAVFQSLNFGGTQNLLVIFKGLKNSTIQSLWLGTFEDMDDEDISPAVFEGLCEMSVESINLQKHYFFNISSNTFHCFSGLQELDLTATHLSELPSGLVGLSTLKKLVLSANKFENLCQISASNFPSLTHLSIKGNTKRLELGTGCLENLENLRELDLSHDDIETSDCCNLQLRNLSHLQSLNLSYNEPLSLKTEAFKECPQLELLDLAFTRLKVKDAQSPFQNLHLLKVLNLSHSLLDISSEQLFDGLPALQHLNLQGNHFPKGNIQKTNSLQTLGRLEILVLSFCDLSSIDQHAFTSLKMMNHVDLSHNRLTSSSIEALSHLKGIYLNLASNRISIILPSLLPILSQQRTINLRQNPLDCTCSNIYFLEWYKENMQKLEDTEDTLCENPPLLRGVRLSDVTLSCS
chain 2: DHGSENGWPKHTACNSGGLEVVYQSCDPLQDFGLSIDQCSKQIQSNLNIRFGIILRQDIRKLFLDITLMAKGSSILNYSYPLCEEDQPKFSFCGRRKGEQIYYAGPVNNPGLDVPQGEYQLLLELYNENRATVACANATVTSS
For B2, the “stoichiometry N” value in data set [4] was 2.

These data come from article PMC3362203 (Nature structural & molecular biology, 2011).
